T1: PFT1-YFP (Arabidopsis thaliana, UniProt Q7XYY2 1-836)
T1 construct: PFT1 (MED25), Arabidopsis thaliana, At1g25540; FRET acceptor; also called PHYTOCHROME AND FLOWERING TIME 1; MED25; source: Arabidopsis protoplast cells, co-expressed
T1 sequence (looked up): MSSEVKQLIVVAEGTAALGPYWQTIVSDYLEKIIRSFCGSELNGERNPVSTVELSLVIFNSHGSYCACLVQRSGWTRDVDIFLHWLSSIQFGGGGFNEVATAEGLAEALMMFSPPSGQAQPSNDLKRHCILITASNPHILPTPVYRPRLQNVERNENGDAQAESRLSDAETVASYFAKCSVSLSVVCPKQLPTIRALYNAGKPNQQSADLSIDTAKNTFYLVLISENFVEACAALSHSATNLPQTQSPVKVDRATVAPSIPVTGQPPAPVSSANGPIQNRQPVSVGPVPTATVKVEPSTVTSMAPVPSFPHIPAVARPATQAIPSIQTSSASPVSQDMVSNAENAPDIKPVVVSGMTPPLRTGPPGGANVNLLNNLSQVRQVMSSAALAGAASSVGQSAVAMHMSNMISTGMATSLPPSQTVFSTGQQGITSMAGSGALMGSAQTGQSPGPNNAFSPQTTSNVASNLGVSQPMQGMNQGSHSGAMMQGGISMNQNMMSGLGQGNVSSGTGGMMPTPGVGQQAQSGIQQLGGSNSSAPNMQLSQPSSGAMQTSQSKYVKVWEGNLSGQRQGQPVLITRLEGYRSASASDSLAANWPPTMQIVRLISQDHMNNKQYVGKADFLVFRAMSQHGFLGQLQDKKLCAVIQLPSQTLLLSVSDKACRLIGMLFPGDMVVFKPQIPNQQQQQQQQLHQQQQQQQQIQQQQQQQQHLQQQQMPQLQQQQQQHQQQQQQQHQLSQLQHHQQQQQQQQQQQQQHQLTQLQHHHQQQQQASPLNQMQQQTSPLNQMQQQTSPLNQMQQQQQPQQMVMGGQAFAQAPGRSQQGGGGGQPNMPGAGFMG

T2: PFT1-CFP (Arabidopsis thaliana, UniProt Q7XYY2 1-836)
T2 construct: PFT1 (MED25), Arabidopsis thaliana, At1g25540; FRET donor; also called PHYTOCHROME AND FLOWERING TIME 1; MED25; source: Arabidopsis protoplast cells, co-expressed
T2 sequence (looked up): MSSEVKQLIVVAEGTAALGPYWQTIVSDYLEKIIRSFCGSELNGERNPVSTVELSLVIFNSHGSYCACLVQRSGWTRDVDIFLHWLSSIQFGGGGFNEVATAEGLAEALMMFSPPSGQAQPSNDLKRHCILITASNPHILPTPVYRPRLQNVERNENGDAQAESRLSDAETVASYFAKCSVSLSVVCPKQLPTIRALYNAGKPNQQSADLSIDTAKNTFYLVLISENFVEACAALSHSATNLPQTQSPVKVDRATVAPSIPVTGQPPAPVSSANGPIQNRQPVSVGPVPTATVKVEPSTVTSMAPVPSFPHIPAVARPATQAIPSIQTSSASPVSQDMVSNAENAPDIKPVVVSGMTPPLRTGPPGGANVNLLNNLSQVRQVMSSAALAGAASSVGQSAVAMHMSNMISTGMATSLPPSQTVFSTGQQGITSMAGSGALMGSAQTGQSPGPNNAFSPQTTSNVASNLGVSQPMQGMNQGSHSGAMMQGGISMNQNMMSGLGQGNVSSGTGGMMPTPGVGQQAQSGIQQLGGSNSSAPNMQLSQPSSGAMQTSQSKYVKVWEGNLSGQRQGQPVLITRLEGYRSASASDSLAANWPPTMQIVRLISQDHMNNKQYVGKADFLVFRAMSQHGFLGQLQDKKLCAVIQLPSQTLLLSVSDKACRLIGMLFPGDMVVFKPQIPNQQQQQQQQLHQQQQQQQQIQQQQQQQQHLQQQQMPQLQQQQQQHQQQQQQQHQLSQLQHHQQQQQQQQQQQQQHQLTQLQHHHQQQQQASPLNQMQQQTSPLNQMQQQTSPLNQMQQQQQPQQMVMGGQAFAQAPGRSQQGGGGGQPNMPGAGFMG

B1: FBH1-YFP (natural protein, Arabidopsis thaliana, UniProt Q9C8P8 1-259, looked up)
chain: MQSTHISGGSSGGGGGGGGEVSRSGLSRIRSAPATWIETLLEEDEEEGLKPNLCLTELLTGNNNSGGVITSRDDSFEFLSSVEQGLYNHHQGGGFHRQNSSPADFLSGSGSGTDGYFSNFGIPANYDYLSTNVDISPTKRSRDMETQFSSQLKEEQMSGGISGMMDMNMDKIFEDSVPCRVRAKRGCATHPRSIAERVRRTRISDRIRRLQELVPNMDKQTNTADMLEEAVEYVKALQSQIQELTEQQKRCKCKPKEEQ
notes: FBH1, Arabidopsis thaliana, At1g35460; FRET acceptor; also called FLOWERING BHLH 1; source: Arabidopsis protoplast cells, co-expressed

How the values were obtained:
Assay in all cases: FRET or BRET; FLIM-FRET in Arabidopsis protoplast cells, 24 h after transformation; CFP fusion as donor, YFP fusion as acceptor; CFP lifetime in nuclei; negative controls TCP4-CFP/YFP tauD 2.59 ± 0.39 ns and PFT1-CFP/YFP tauD 2.80 ± 0.28 ns
Settings in all cases: partners not purified
FBH1-YFP = target: B1
PFT1-YFP = target: T1, PFT1-YFP
PFT1-CFP = target: T2, PFT1-CFP

| average CFP fluorescence lifetime (tauDA) (FBH1-YFP) [ns] | average CFP fluorescence lifetime (tauDA) (PFT1-YFP) [ns] | average CFP fluorescence lifetime (tauDA) (PFT1-CFP) [ns] | Binder |
| --- | --- | --- | --- |
| 0.99 | 0.9 | – | TCP4-CFP (natural protein, Arabidopsis thaliana, UniProt Q8LPR5 1-420, looked up, TCP4, Arabidopsis thaliana, At3g15030; FRET donor; source: Arabidopsis protoplast cells, co-expressed) MSDDQFHHPPPPSSMRHRSTSDAADGGCGEIVEVQGGHIVRSTGRKDRHSKVCTAKGPRDRRVRLSAHTAIQFYDVQDRLGFDRPSKAVDWLIKKAKTSIDELAELPPWNPADAIRLAAANAKPRRTTAKTQISPSPPPPQQQQQQQQLQFGVGFNGGGAEHPSNNESSFLPPSMDSDSIADTIKSFFPVIGSSTEAPSNHNLMHNYHHQHPPDLLSRTNSQNQDLRLSLQSFPDGPPSLLHHQHHHHTSASASEPTLFYGQSNPLGFDTSSWEQQSSEFGRIQRLVAWNSGGGGGATDTGNGGGFLFAPPTPSTTSFQPVLGQSQQLYSQRGPLQSSYSPMIRAWFDPHHHHQSISTDDLNHHHHLPPPVHQSAIPGIGFASGEFSSGFRIPARFQGQEEEQHDGLTHKPSSASSISRH |
| – | – | 0.95 | B1 |
